Laboratory results taken from US20230406885A1, “CYCLIC PEPTIDES FOR TRAPPING INTERLEUKIN-1 BETA” (MERCK SHARP & DOHME LLC, priority 2022, published 2023).
*1 amine or outer side, *2 acyl side, *3 side chain or, on linkers, in order; H or OH if unused. [ ]: non-standard residue; d: D form. TyrEtNAc = L-tyrosine O-ethyl acetamide, (S)-3-(4-(2-acetamidoethoxy)phenyl)-2-aminopropanoic acid, CC(=O)NCCOc1ccc(C[C@H](N[*:1])C(=O)[*:2])cc1; hF3CF3 = (S)-2-amino-4-(3-(trifluoromethyl)phenyl)butanoic acid, O=C([C@H](CCc1cccc(C(F)(F)F)c1)N[*:1])[*:2]; Cha44F2 = (S)-2-amino-3-(4,4-difluorocyclohexyl)propanoic acid, O=C([C@H](CC1CCC(F)(F)CC1)N[*:1])[*:2]; AbuMph = (S)-2-amino-4-morpholinobutanoic acid, O=C([C@H](CCN1CCOCC1)N[*:1])[*:2]; Trp(4-Cl)(βS-Me) = C[C@@H](c1c[nH]c2cccc(Cl)c12)[C@H](N)C(=O)O; Pro(trans-4-NH2) = O=C([C@@H]1C[C@@H](N[*:3])CN1[*:1])[*:2]; Bip(4'-COOH) = N[C@@H](Cc1ccc(-c2ccc(C(=O)O)cc2)cc1)C(=O)O; Phe(4-COOH) = N[C@@H](Cc1ccc(C(=O)O)cc1)C(=O)O; hTyr = N[C@@H](CCc1ccc(O)cc1)C(=O)O; hPhe = N[C@@H](CCc1ccccc1)C(=O)O; 4Pal = N[C@@H](Cc1ccncc1)C(=O)O; Dap(Me2) = CN(C)C[C@H](N)C(=O)O; dDab = NCC[C@@H](N)C(=O)O; dNMeA = CN[C@H](C)C(=O)O; Dab = NCC[C@H](N)C(=O)O; Nva = CCC[C@H](N)C(=O)O; Dap = NC[C@H](N)C(=O)O

B1: SEQ ID NO: 135 (Example No. 135) (peptide)
peptide: cyclo([TyrEtNAc]W[Phe(4-COOH)]G[Pro(trans-4-NH2)][Trp(4-Cl)(βS-Me)]D[dNMeA]G[Bip(4'-COOH)][4Pal]L[dA][hTyr])
SMILES: CC(=O)NCCOc1ccc(C[C@@H]2NC(=O)[C@H](CCc3ccc(O)cc3)NC(=O)[C@@H](C)NC(=O)[C@H](CC(C)C)NC(=O)[C@H](Cc3ccncc3)NC(=O)[C@H](Cc3ccc(-c4ccc(C(=O)O)cc4)cc3)NC(=O)CNC(=O)[C@@H](C)N(C)C(=O)[C@H](CC(=O)O)NC(=O)[C@H]([C@@H](C)c3c[nH]c4cccc(Cl)c34)NC(=O)[C@@H]3C[C@@H](N)CN3C(=O)CNC(=O)[C@H](Cc3ccc(C(=O)O)cc3)NC(=O)[C@H](Cc3c[nH]c4ccccc34)NC2=O)cc1
B2: SEQ ID NO: 136 (Example No. 136) (peptide)
peptide: cyclo([TyrEtNAc]W[Phe(4-COOH)]G[Pro(trans-4-NH2)][Trp(4-Cl)(βS-Me)]D[dNMeA]G[Bip(4'-COOH)][4Pal][Nva][dA][Cha44F2])
SMILES: CCC[C@@H]1NC(=O)[C@H](Cc2ccncc2)NC(=O)[C@H](Cc2ccc(-c3ccc(C(=O)O)cc3)cc2)NC(=O)CNC(=O)[C@@H](C)N(C)C(=O)[C@H](CC(=O)O)NC(=O)[C@H]([C@@H](C)c2c[nH]c3cccc(Cl)c23)NC(=O)[C@@H]2C[C@@H](N)CN2C(=O)CNC(=O)[C@H](Cc2ccc(C(=O)O)cc2)NC(=O)[C@H](Cc2c[nH]c3ccccc23)NC(=O)[C@H](Cc2ccc(OCCNC(C)=O)cc2)NC(=O)[C@H](CC2CCC(F)(F)CC2)NC(=O)[C@@H](C)NC1=O
B3: SEQ ID NO: 137 (Example No. 137) (peptide)
peptide: cyclo([TyrEtNAc]W[Phe(4-COOH)]G[Pro(trans-4-NH2)][Trp(4-Cl)(βS-Me)]D[dNMeA]G[Bip(4'-COOH)]KL[dA][hF3CF3])
SMILES: CC(=O)NCCOc1ccc(C[C@@H]2NC(=O)[C@H](CCc3cccc(C(F)(F)F)c3)NC(=O)[C@@H](C)NC(=O)[C@H](CC(C)C)NC(=O)[C@H](CCCCN)NC(=O)[C@H](Cc3ccc(-c4ccc(C(=O)O)cc4)cc3)NC(=O)CNC(=O)[C@@H](C)N(C)C(=O)[C@H](CC(=O)O)NC(=O)[C@H]([C@@H](C)c3c[nH]c4cccc(Cl)c34)NC(=O)[C@@H]3C[C@@H](N)CN3C(=O)CNC(=O)[C@H](Cc3ccc(C(=O)O)cc3)NC(=O)[C@H](Cc3c[nH]c4ccccc34)NC2=O)cc1
B4: SEQ ID NO: 138 (Example No. 138) (peptide)
peptide: cyclo([TyrEtNAc]W[Phe(4-COOH)]G[Pro(trans-4-NH2)][Trp(4-Cl)(βS-Me)]D[dNMeA]G[Bip(4'-COOH)]KS[dA][hTyr])
SMILES: CC(=O)NCCOc1ccc(C[C@@H]2NC(=O)[C@H](CCc3ccc(O)cc3)NC(=O)[C@@H](C)NC(=O)[C@H](CO)NC(=O)[C@H](CCCCN)NC(=O)[C@H](Cc3ccc(-c4ccc(C(=O)O)cc4)cc3)NC(=O)CNC(=O)[C@@H](C)N(C)C(=O)[C@H](CC(=O)O)NC(=O)[C@H]([C@@H](C)c3c[nH]c4cccc(Cl)c34)NC(=O)[C@@H]3C[C@@H](N)CN3C(=O)CNC(=O)[C@H](Cc3ccc(C(=O)O)cc3)NC(=O)[C@H](Cc3c[nH]c4ccccc34)NC2=O)cc1
B5: SEQ ID NO: 139 (Example No. 139) (peptide)
peptide: cyclo([TyrEtNAc]W[Phe(4-COOH)]G[Pro(trans-4-NH2)][Trp(4-Cl)(βS-Me)]D[dNMeA]G[Bip(4'-COOH)]KS[dDab][hTyr])
SMILES: CC(=O)NCCOc1ccc(C[C@@H]2NC(=O)[C@H](CCc3ccc(O)cc3)NC(=O)[C@@H](CCN)NC(=O)[C@H](CO)NC(=O)[C@H](CCCCN)NC(=O)[C@H](Cc3ccc(-c4ccc(C(=O)O)cc4)cc3)NC(=O)CNC(=O)[C@@H](C)N(C)C(=O)[C@H](CC(=O)O)NC(=O)[C@H]([C@@H](C)c3c[nH]c4cccc(Cl)c34)NC(=O)[C@@H]3C[C@@H](N)CN3C(=O)CNC(=O)[C@H](Cc3ccc(C(=O)O)cc3)NC(=O)[C@H](Cc3c[nH]c4ccccc34)NC2=O)cc1
B6: SEQ ID NO: 140 (Example No. 140) (peptide)
peptide: cyclo([TyrEtNAc]W[Phe(4-COOH)]G[Pro(trans-4-NH2)][Trp(4-Cl)(βS-Me)]D[dNMeA]G[Bip(4'-COOH)]W[AbuMph][dA]G)
SMILES: CC(=O)NCCOc1ccc(C[C@@H]2NC(=O)CNC(=O)[C@@H](C)NC(=O)[C@H](CCN3CCOCC3)NC(=O)[C@H](Cc3c[nH]c4ccccc34)NC(=O)[C@H](Cc3ccc(-c4ccc(C(=O)O)cc4)cc3)NC(=O)CNC(=O)[C@@H](C)N(C)C(=O)[C@H](CC(=O)O)NC(=O)[C@H]([C@@H](C)c3c[nH]c4cccc(Cl)c34)NC(=O)[C@@H]3C[C@@H](N)CN3C(=O)CNC(=O)[C@H](Cc3ccc(C(=O)O)cc3)NC(=O)[C@H](Cc3c[nH]c4ccccc34)NC2=O)cc1
B7: SEQ ID NO: 141 (Example No. 141) (peptide)
peptide: cyclo([TyrEtNAc]W[Phe(4-COOH)]G[Pro(trans-4-NH2)][Trp(4-Cl)(βS-Me)]D[dNMeA]G[Bip(4'-COOH)]W[AbuMph][dA][hTyr])
SMILES: CC(=O)NCCOc1ccc(C[C@@H]2NC(=O)[C@H](CCc3ccc(O)cc3)NC(=O)[C@@H](C)NC(=O)[C@H](CCN3CCOCC3)NC(=O)[C@H](Cc3c[nH]c4ccccc34)NC(=O)[C@H](Cc3ccc(-c4ccc(C(=O)O)cc4)cc3)NC(=O)CNC(=O)[C@@H](C)N(C)C(=O)[C@H](CC(=O)O)NC(=O)[C@H]([C@@H](C)c3c[nH]c4cccc(Cl)c34)NC(=O)[C@@H]3C[C@@H](N)CN3C(=O)CNC(=O)[C@H](Cc3ccc(C(=O)O)cc3)NC(=O)[C@H](Cc3c[nH]c4ccccc34)NC2=O)cc1
B8: SEQ ID NO: 142 (Example No. 142) (peptide)
peptide: cyclo([TyrEtNAc]W[Phe(4-COOH)]G[Pro(trans-4-NH2)][Trp(4-Cl)(βS-Me)]D[dNMeA]G[Bip(4'-COOH)]W[Dab][dA][hPhe])
SMILES: CC(=O)NCCOc1ccc(C[C@@H]2NC(=O)[C@H](CCc3ccccc3)NC(=O)[C@@H](C)NC(=O)[C@H](CCN)NC(=O)[C@H](Cc3c[nH]c4ccccc34)NC(=O)[C@H](Cc3ccc(-c4ccc(C(=O)O)cc4)cc3)NC(=O)CNC(=O)[C@@H](C)N(C)C(=O)[C@H](CC(=O)O)NC(=O)[C@H]([C@@H](C)c3c[nH]c4cccc(Cl)c34)NC(=O)[C@@H]3C[C@@H](N)CN3C(=O)CNC(=O)[C@H](Cc3ccc(C(=O)O)cc3)NC(=O)[C@H](Cc3c[nH]c4ccccc34)NC2=O)cc1
B9: SEQ ID NO: 143 (Example No. 143) (peptide)
peptide: cyclo([TyrEtNAc]W[Phe(4-COOH)]G[Pro(trans-4-NH2)][Trp(4-Cl)(βS-Me)]D[dNMeA]G[Bip(4'-COOH)]W[Dab][dA][hTyr])
SMILES: CC(=O)NCCOc1ccc(C[C@@H]2NC(=O)[C@H](CCc3ccc(O)cc3)NC(=O)[C@@H](C)NC(=O)[C@H](CCN)NC(=O)[C@H](Cc3c[nH]c4ccccc34)NC(=O)[C@H](Cc3ccc(-c4ccc(C(=O)O)cc4)cc3)NC(=O)CNC(=O)[C@@H](C)N(C)C(=O)[C@H](CC(=O)O)NC(=O)[C@H]([C@@H](C)c3c[nH]c4cccc(Cl)c34)NC(=O)[C@@H]3C[C@@H](N)CN3C(=O)CNC(=O)[C@H](Cc3ccc(C(=O)O)cc3)NC(=O)[C@H](Cc3c[nH]c4ccccc34)NC2=O)cc1
B10: SEQ ID NO: 144 (Example No. 144) (peptide)
peptide: cyclo([TyrEtNAc]W[Phe(4-COOH)]G[Pro(trans-4-NH2)][Trp(4-Cl)(βS-Me)]D[dNMeA]G[Bip(4'-COOH)]W[Dap][dA][hPhe])
SMILES: CC(=O)NCCOc1ccc(C[C@@H]2NC(=O)[C@H](CCc3ccccc3)NC(=O)[C@@H](C)NC(=O)[C@H](CN)NC(=O)[C@H](Cc3c[nH]c4ccccc34)NC(=O)[C@H](Cc3ccc(-c4ccc(C(=O)O)cc4)cc3)NC(=O)CNC(=O)[C@@H](C)N(C)C(=O)[C@H](CC(=O)O)NC(=O)[C@H]([C@@H](C)c3c[nH]c4cccc(Cl)c34)NC(=O)[C@@H]3C[C@@H](N)CN3C(=O)CNC(=O)[C@H](Cc3ccc(C(=O)O)cc3)NC(=O)[C@H](Cc3c[nH]c4ccccc34)NC2=O)cc1
B11: SEQ ID NO: 145 (Example No. 145) (peptide)
peptide: cyclo([TyrEtNAc]W[Phe(4-COOH)]G[Pro(trans-4-NH2)][Trp(4-Cl)(βS-Me)]D[dNMeA]G[Bip(4'-COOH)]W[Dap][dA][hTyr])
SMILES: CC(=O)NCCOc1ccc(C[C@@H]2NC(=O)[C@H](CCc3ccc(O)cc3)NC(=O)[C@@H](C)NC(=O)[C@H](CN)NC(=O)[C@H](Cc3c[nH]c4ccccc34)NC(=O)[C@H](Cc3ccc(-c4ccc(C(=O)O)cc4)cc3)NC(=O)CNC(=O)[C@@H](C)N(C)C(=O)[C@H](CC(=O)O)NC(=O)[C@H]([C@@H](C)c3c[nH]c4cccc(Cl)c34)NC(=O)[C@@H]3C[C@@H](N)CN3C(=O)CNC(=O)[C@H](Cc3ccc(C(=O)O)cc3)NC(=O)[C@H](Cc3c[nH]c4ccccc34)NC2=O)cc1
B12: SEQ ID NO: 146 (Example No. 146) (peptide)
peptide: cyclo([TyrEtNAc]W[Phe(4-COOH)]G[Pro(trans-4-NH2)][Trp(4-Cl)(βS-Me)]D[dNMeA]G[Bip(4'-COOH)]W[Dap(Me2)][dA][hTyr])
SMILES: CC(=O)NCCOc1ccc(C[C@@H]2NC(=O)[C@H](CCc3ccc(O)cc3)NC(=O)[C@@H](C)NC(=O)[C@H](CN(C)C)NC(=O)[C@H](Cc3c[nH]c4ccccc34)NC(=O)[C@H](Cc3ccc(-c4ccc(C(=O)O)cc4)cc3)NC(=O)CNC(=O)[C@@H](C)N(C)C(=O)[C@H](CC(=O)O)NC(=O)[C@H]([C@@H](C)c3c[nH]c4cccc(Cl)c34)NC(=O)[C@@H]3C[C@@H](N)CN3C(=O)CNC(=O)[C@H](Cc3ccc(C(=O)O)cc3)NC(=O)[C@H](Cc3c[nH]c4ccccc34)NC2=O)cc1

molecular target: Recombinant human IL-1β (BioLegend 579404) (human, UniProt P01584 117-269); assay: cell-based or functional assay

Binder	MRC5 IC50 [nM]
B1	0.31
B2	0.396
B3	0.0939
B4	0.214
B5	0.133
B6	0.515
B7	0.177
B8	0.159
B9	0.23
B10	0.0749
B11	0.0748
B12	0.114
